The values below come from a protein production outcome set (Wang et al. 2014).

A short description of the data set: label from the status in PepcDB records.
As for “MFKGDMNKKRAKALQKVKEAITLHGGQTILSTGITGDDARLAKAVCEAGVKLLEPNHPALALARGHKGVSNMHAAEQIRHEITNSQMAEAVHGVRNVVPDDIFITVGIAGGFTETLPVPLSEKEILEIARAGADGLHTHKSDWDDLQDIVNLAHQYGLTVDAYIGHPDDLHTFGIPARTPEEVASVAKRMQDIGVDMIGLMTGMSYEGVAAGDIPQMIKDRLRALVGAVDVPTLAEGGINLANAKAFKDTGVNILVVGTAIDNMVCNAAKEAVTPFIVH”, the protein production result is reported as “not failed”.
Under “MKLVVCSESDTAGQNIKDNLLTFADFEEKDVGEFKLYLSDEFYIAETKERLIYADHIDEKLAKYIDFEEILFASRHSSKDGRKIFTVHVSGNVGTADFGGKPYSLAKPSPQTMKNYVLALRERLDRKPEFEFTMEVTHHGPSEISKPSAFYEIGSTEEEWKDREAAEVVAEAMLDAIRAEKMDWNVAVGVGGTHYAPRQTEIMLTTTFTFGHNFAKYTFEHLTAEFLVKAVKLSEAEYIIIDEKSVNSAVKKIVNEAAEVAGVEVLKSKKVKKDFRLV” stands “not failed”; under “MERPLESYKKEAAHAAIAYVQDGMVVGLGTGSTARYAVLELARRLREGELKGVVGVPTSRATEELAKREGIPLVDLPPEGVDLAIDGADEIAPGLALIKGMGGALLREKIVERVAKEFIVIADHTKKVPVLGRGPVPVEIVPFGYRATLKAIADLGGEPELRMDGDEFYFTDGGHLIADCRFGPIGDPLGLHRALLEIPGVVETGLFVGMATRALVAGPFGVEELLP”, “not failed”.
As to “MKLSSEKLPKNPFSLSQYAAKQQKFFQWKKEKPDYYLHANLVDTALQFLKERIRRGDAMAYFLRGQLYFEEGWYEEALAQFEEIQEKDHQAIYQLGVMYYDGLGTIANAEKGVNYMRKILDSSCPQTMHLKFAAAYNLGRAYFEGKGVKRSDEEAERLWLLAADNGNPKASVKAQSILGLFYSMKEPKELEKAFFWHSEACGNGSLESQGALGLMYFYGQGIRQDTDAALHCLREAAERGNVYAQGTLVEYYYKMKFFTKCVSFSKRIADYDEVHDIPMIAHVTDCLPEFIIKGMAMAAFYHGRCLQLGLGIMKDEESAKHYYSKACRLNPTLADELHSLLIHQRI”, the protein production result is reported as “failed”.
The result for “DQEPPLYVNENDIFTSPTRIEATLNGLYAAIKNTGTKSLMGGKSYLVFDNRGDDVINISNNLVTLFNTYNMNVGITDAENADTWTYAYLAINKVNTFLQSLEGAREVAGENYDRYVQEAKFVRALAYYYLNNLYPTPYSVNPDAKSVPLRLTAEAGTENNNMPRSTVKQIYEHILSDLENISALDTEVNTYTGVTHATQAAANMLKMRVYMAMNEWDKAITAGELVTGYSLPEDVTLIYKAPYFSQESIFSLPMADTNIPNTQQSLAEYYYDGKIMLIDTKSGIMSKPDYSLATDKRIIAFKGEKDLLMKFTDAKTKLQWVPIFRYAETLLDLAECYANKAGGEATAKSLLKQVRGRSVDAATDPLNIDNLSGDALKEAIYNEKRLEFIGEGIRGIDIMRRGEHFIKVGENETINVGPSDEKYTWPIPQVELLLNKDINK” reads “not failed”; that for “MSNDNGVSRRQFMKTSALAAGGLLLACHLPLGRRDAAAATAEAFTPNAFLHIGTDERVTVIVNKSEMGQGVYTSLPMLVAEELCCDWKRVTFRPSPVAPEYNHTQFGPIMVTGGSTSVRSEWSRLSLAGAAAREMLIAAAAQEWRVEPAACRAEKGFVLGPGGRKLSFGTLAPKAASLPVPKEPKLKPGAKTLLGKPLKRLDSPAKIKGTAVFGIDVRAPGMLTALIARPPVFGGTVKGFDAAKAKAVPGVLDVVAVDAGVAVVADGFWPALKGREALAISWDEGDGARVSTDAMREEYARLAATPGAVARKDGDAPAELAKAARRFEAEYEVPYLAHATMEPLNCFVDLQSDSCLIRTGSQFQTGDRNAAARVAGLKPEQVTLETTFLGGGFGRRACPASDFVIEAVQVAKTVGKPVMVIRTREDDMRAGFYRPLWRDRVAACLDGRGYPLAWHHCIVGQSIMIGTPFEAMIRNGIDDTSVEGAADTPYAIPNLQVELHSPRNPVPVLWWRSVGHSHTAFVVESFLDELAHAAGKDPYQYRRALLAKHPRHLKVLETAARKAGWGKPLPKGRGRGIAVHESFGSFIAQVAEVSLSGDGRIRVHRVVCAVDCGRIVNPDTIEAQMESGITFGLSAALHGAITLRNGRVEQGNFDDYPLVRMAEMPTVEVHIVLSGEDPGGIGEPGVPPIAPAVANALFAASGIRVRSLPLTPETVKRAGGRAA”, “failed”.
The result for “MNNNLQRDAIAAAIDVLNEERVIAYPTEAVFGVGCDPDSETAVMRLLELKQRPVDKGLILIAANYEQLKPYIDDTMLTDVQRETIFSRWPGPVTFVFPAPATTPRWLTGRFDSLAVRVTDHPLVVALCQAYGKPLVSTSANLSGLPPCRTVDEVRAQFGAAFPVVPGETGGRLNPSEIRDALTGELFRQG” reads “not failed”; that for “MIDIHCHILPEIDDGPSSLEESLVMAREAVKEGITKIIATPHHLHPSYNNKAAVVKEKVRKLNEAIQKENIPLEILPGQEVRISGDVMDGLVSGDILTLADQGKYLFVEFSSNHVSRYADKLFFQLLSQDIIPIIVHPERNHEFLKNPGLLYDLVNGGALTQITTSSLTGHLGKKIKKFTEQIIEADLTHFLASDAHNVTERTFRIREAFALVEKNYGSSKAYEFQENAELLVENQHVMGPPPQPIVKKKLLGIF”, “failed”.
In the case of “MDLFNLLDGITFWHWLAFGFVLLAVELLGTAGYFLWLGLSALLVGALLAVLPFGWQLQWLSFATFSLLTTWLWWRRQWSRDKQDDQTRDLNQKYKQLIGRSVILEEDFSIGLNRIRIADTTWSAQCEQNIRAGTRVKIVAIDGIILIVEPISE”, the protein production result is reported as “failed”.
Under “MEIGVSGASGQLGKAVLAELAARGAGHRVVGISRTPERVPAPAQGRLGDYDRAETLLQAYRGLDRLLLIPSADLGPGVRGRQFTAAIDAAVRAGVKHIVMVSTAGTRELAEPALGAAYWVGEQRLVKTAPRWTILRMNYYAESFAQQAPMFLGSGILPGLGENRVAFVSRDDVAAAAAGILLGEGHAGAIYNATGPVALSGAQRAALVAELSGKPLRFAVSDEAPLRQGLAQAGLPGGFVDAVIDLEKSFVAGAFDVVTGDVARLAGREPRALRTLLADSLRPAVADA” stands “failed”.
Regarding “MNHWSMPPNPEKALMLAQRAVAVFVYDAVRLEGINFTLPEVQTLLQGVTVGGHRLSDQQIAVNQGEAWKLLFQMIRDGRFELTPDCAMALHGVAAKEEALEWGCFRSGSVLIAGTEYEPPAASELPTRFDRMIDELQHMDDVHDQAVHLFLTMARCQFFYDVNKRMGRFMMNGHLLSNGYPAINIPASSQLEFNELMLRFYDSGDQREMNAFVRSCMDERVVLIMKEELEHHHHHH”, the protein production entry was “failed”.
Regarding “MSLLEKDINLKIFKGNLIFTKTSDKFTIMKDSYIVVIDGKIASVSSNLPDKYKGNPIIDFRNNIIIPGMNDLHAHASQYKNLGIGMDKELLPWLNNYTFPEEAKFLNVDYAKKTYGRLIKDLIKNGTTRVALFATLHKDSTIELFNMLIKSGIGAYVGKVNMDYNCPDYLTENYITSLNDTEEIILKYKDKSNIVKPIITPRFVPSCSNELMDGLGKLSYKYRLPVQSHLSENLDEIAVVKSLHKKSNFYGEVYDKFGLFGNTPTLMAHCIHSSKEEINLIKRNNVTIVHCPTSNFNLGSGMMPVRKYLNLGINVVLGSDISAGHTCSLFKVIAYAIQNSKIKWQESGKKDMFLSTSEAFYMATKKGGSFFGKVGSFEEGYDFDALVINDSNLYPEDYDLTERLERFIYLGDDRNIMKRYVCGNEIFGPKFEGHHHHHH”, the protein production result is listed as “not failed”.
In the case of “RFRVTPYHGNLLGDHERLAAFREAISSRARGLTYDLGAGSGILSFFASEYADRVIAIERDPKIAACAGENLSGLDNVSVVNEDALHYEFSAADTIICEMLDTALIDEEQVPVLRRALKFLRNDGTVIPQAVF”, the protein production result was “failed”.
“MLKRTFILIGLVLSFCSLPAQELIQITTRNTALVFRVANQSLRQVYYGPRLADTDVLQKQGNNFPAYSTYGMGEQNEVALHAVHADGNTSTLLNFENVKQESPEPGITLTTISLKDPLYPFQVKLFYKAYEESDLIEQWTIYQHTEKKPVTLYQFASAQLSFKSSSYRLTHFAGDWAGECNMSEVELTEGIKVIDSKLGTRATFFAHPMCLLSLNGRMTEDNGEVIGMALAWPANFKLEFEKNNNQELRVLAGMNPYASHYKLKKGDVFQTPSFLYTYSTKGNGQVSRNFHRWARKYGLRHGENSRYTLMNNWEATYFNFNEPKLKSIIEDAAGMGFELFLLDDGWFGQKHPRNNDDAGLGDWVVNKEKLPNGLGWLVKQCTDNDIKFGIWVEPEMVNPQSELFEKHPDWVIQQPEREHILFRRQLVLDLSNPEVQEFVYKSVHDILKDNPQIAFVKWDCNRAVTNPGSTYLPADEQSHIWIEYGRGLLNVFKKVRDSHPDVHFMLCSGGGGRLDYGSLRYFEEYWPSDNTDALQRILIQWGNSQFFPSIAMCCHVSASPNHQTGRTTPLKFRFDVAMQGALGMDLQPSTMNEKEVIFAKEAIKTYESIRNIVFTGDLYRILSPYEGNRTSMMYVLPDKSRAVFYAYQLKSHIGEVSAPMRFKGLIPDKKYNVKELNIYPGSRAATGSANGQSFSGDFLMNQGLPIGLSGDYSSAVIELEQQ”: the protein production entry is “failed”.
The result for “MKIRHVSHQAWLLFLVALLVLGSGLGLRDPHPADEPRFALVAKQMVDSGEWLFPHRGNELYSDKPPMLMWLQAAFYTLFGNLKVAFLLPSLLAALGTLVCVYDLGRRLWTRRIGLYAAYALLFTFHFTYQAKRAQIDALVVFFITFANYGLLRHLLFGGHWRWWVLGWFAAGLGTITKGVGALALLIVLPAAAASLAGWPRVRVHVRDVRFWLGPLGFLVAVSLWLVPMVMTALSAQQPEYRAYLNDILLRQTFGRYTKSWDHAQPPWYFLQVMLVMWIPTLLALPWALPAWWRRMRRRDPRYLLPLAWCVLLLVFFSIPSGKRDVYMLPALPMVCLALAPLLPGLLRKRACSRLLLAFGVLLVLVLAVFGAGLLIRSDWQARMMEGTTLILEDVRVIAWGGIAVASWGVFSLLAFSQRRPVVAVFSVLTTLWLVFGLVLMPVVNDSSSARGVMMIAGKRIGPAAELGLVAWKEQNLLMADRSVATFGFLVPWDEQLRRGIAWQVQRPRQRWLLVQEAAMFGCINRSASVFVGSSNRRAWWLVPAWAVHGACIMTQAEHDRLSKQ” reads “failed”; that for “MSGGGVIRGPAGNNDCRIYVGNLPPDIRTKDIEDVFYKYGAIRDIDLKNRRGGPPFAFVEFEDPRDAEDAVYGRDGYDYDGYRLRVEFPRSGRGTG”, “not failed”.
As for “MSKVRIAIIGNGMVGHRFIEELLDKAPAGQFDITVFCEEPRIAYDRVHLSSYFSHHTAEELSLVREGFYEKHGVKVLVGERAITINRQEKVIHSSAGRTVFYDKLIMATGSYPWIPPIKGAETQDCFVYRTIEDLNAIESCARRSKRGAVVGGGLLGLEAAGALKNLGVETHVIEFAPMLMAEQLDQMGGEQLRRKIESMGVKVHTSKNTKEIVQQGTEARKTMHFADGSELQVDFIVFSTGIRPRDKLATQCGLAVAQRGGIMVNDSCQTSDPDIYAIGECASWNNRVYGLVAPGYKMAQVAVDHLLGSENSFTGADLSAKLKLLGVDVGGIGDAHGRTPGARSYVYLDESKEVYKRLIVSADNKTLLGAVLVGDTSDYGNLLQLVLNAIELPENPDSLILPAHAGSGKPSIGVDKLPDSAQICSCFDVSKGDLIAAINKGCHTVAALKAETKAGTGCGGCIPLVTQVLNAELAKQGIEVNNNLCEHFAYSRQELFHLIRVEGIKTFDELLEKHGQGYGCEVCKPTVGSLLASCWNEYILKPQHTPLQDSNDNFLANIQKDGTYSVIPRSAGGEITPEGLVAVGRIAREFNLYTKITGSQRIGLFGAQKDDLPEIWRQLIEAGFETGHAYAKALRMAKTCVGSTWCRYGVGDSVGFGVELENRYKGIRTPHKMKFGVSGCTRECAEAQGKDVGIIATEKGWNLYVCGNGGMKPRHADLLAADLDRETLIKYLDRFMMFYIRTADKLTRTAPWLDNMEGGIDYLRSVIIDDKLGLNDHLEEELARLRAAFACEWTETVNNPAAQTRFKHFINSDQRDPNVQVVPERDQHRPATPYERIPVTLVEEKA”, the protein production result is recorded as “not failed”.
